Measured values reported in patent US20170313754A1 (PROTAGONIST THERAPEUTICS, published 2017).
Like-named read-outs stand apart in the source and are kept apart here. Numbered stars: 1 amine (or outer) side, 2 acyl side, 3 side chain; on linkers, the order of the positions; unused ones are H or OH. Square brackets hold non-standard residues; d marks the D form. Primed or numbered codes have the meaning given here. Ends that are not written are not given here. Ida = iminodiacetic acid, O=C(CN(CC(=O)[*:3])[*:1])[*:2]; PEG3′ = NH2CH2CH2(OCH2CH2)3CH2CH2CO2H (PEG3 linker); Dip = N[C@H](C(=O)O)C(c1ccccc1)c1ccccc1; β3hF = N[C@H](CC(=O)O)Cc1ccccc1; β3hP = O=C(O)C[C@@H]1CCCN1; Palm = palmitoyl

T1: human ferroportin (SLC40A1) fused in frame with GFP, stably expressed on HEK293 cells (human, UniProt Q9NP59 1-571)
T1 sequence (looked up): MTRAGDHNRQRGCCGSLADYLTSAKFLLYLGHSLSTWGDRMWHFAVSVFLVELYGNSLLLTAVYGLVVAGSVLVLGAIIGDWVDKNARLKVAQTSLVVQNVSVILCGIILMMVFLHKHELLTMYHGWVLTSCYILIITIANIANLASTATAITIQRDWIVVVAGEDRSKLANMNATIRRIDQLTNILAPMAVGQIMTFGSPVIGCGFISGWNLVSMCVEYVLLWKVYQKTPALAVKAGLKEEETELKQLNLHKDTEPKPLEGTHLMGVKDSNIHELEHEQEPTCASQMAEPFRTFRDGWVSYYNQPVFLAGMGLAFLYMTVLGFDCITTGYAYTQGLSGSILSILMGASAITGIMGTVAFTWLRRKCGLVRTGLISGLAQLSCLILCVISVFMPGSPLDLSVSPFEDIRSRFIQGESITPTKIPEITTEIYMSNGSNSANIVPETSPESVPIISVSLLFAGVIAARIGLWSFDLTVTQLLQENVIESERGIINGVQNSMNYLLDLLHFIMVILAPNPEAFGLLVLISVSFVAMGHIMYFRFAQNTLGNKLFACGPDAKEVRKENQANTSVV

T2: human ferroportin (SLC40A1) fused in frame with GFP, stably expressed on HEK293 cells (human, UniProt Q9NP59 1-571)
T2 sequence (looked up): T1 sequence (looked up)

B1: Cmpd6: Isovaleric acid-DTHFPCIIF-[Sarc]-PHSKG-[N-MeTrp]-VC-NH2 (peptide)
peptide: DTHFPCIIFXPHSKGWVC
modifications: N-terminal isovaleric acid; sarcosine [Sarc] at position 10; N-methyl-tryptophan [N-MeTrp] at position 16; C-terminal amide (-NH2)
B2: (Hy-DTHFPCLF-NH2)2 (peptide)
peptide: H-DTHFPCLF-NH2
modifications: also: homodimer, link between subunits not given here
B3: (Hy-DTHFPICIF-NH2)2 (peptide)
peptide: H-DTHFPICIF-NH2
modifications: also: homodimer, link between subunits not given here
B4: (Ida-TH-Dpa-bhPro-RCR-bhPhe-PEG3-Palm)2 (peptide)
peptide: [Ida]TH[Dip][β3hP]RCR[β3hF]-{PEG3′-Palm}
modifications: also: homodimer, linkage not given here

Experiments:
Experiment in all cases: cell-based or functional assay
[1] = target: T1, human ferroportin (SLC40A1) fused in …
[2] = target: T2, human ferroportin (SLC40A1) fused in …; remark: listed apart in the source
[3] = target: T2, human ferroportin (SLC40A1) fused in …; remark: listed apart in the source

| Binder | Potency EC50 (nM), ferroportin internalization/degradation assay [3] [nM] | further results |
| --- | --- | --- |
| B1 | – | Potency EC50 (nM), ferroportin internalization/degradation assay (loss of GFP fluorescence) [1]: 9 nM |
| B2 | – | Potency EC50 (nM), ferroportin internalization/degradation assay [2]: 297 nM |
| B3 | 146 | – |
| B4 | 31 | – |
